Test results published in the RNAGym collection of RNA variant scans (doi:10.1073/pnas.2313332121).
Variants at the floor of the assay were thinned out.

B1: TPR 5TU (parent)
chain: GGAUCUUCUCGAUCUAACAAAAAAGACAAAUCUGCCACAAAGCUUGAGAGCAUCUUCGGAUGCAGAGGCGGCAGCCUUCGGUGGCGCGAUAGCGCCAACGUUCUCAACUAUGACACGCAAAACGCGUGCUCCGUUGAAUGGAGUUUAUCAUG

Variants of: B1
Test: polymerase ribozyme fitness, log enrichment relative to wild type (log ratio); higher = more active; in vitro selection for triplet polymerase activity
Method in brief: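 Fitness is a logarithmic measure of how a genotype enriched relative to the wild type, with replicate averages weighted by inverse variance. The logarithm uses base 2, and enrichment came from Illumina sequencing of input and output libraries. Those libraries were PCR-built, transcribed mutants of each subunit of a heterodimeric triplet polymerase ribozyme, passed through one triplicate in vitro selection round that included frozen incubation at −7 °C, gel excision of extended constructs and streptavidin-bead capture. Genotypes were kept only if they had ≥10 input reads and ≥1 read per output.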

First: GGAUCUUCUCGAUCUAACAAAAAAGACAAAUCUGCCACAAAGCUUGAGAGCAUCUUCGGAUGCAGAGGCGGCAGCCUUCGGUCGCGCGAUAGCGCCAACGUUCUCAACUAUGACACGCAAAACGCGUGCUCCGUUGAAUGGAGUUUAACAUG
Second: GGAUCUUCUCGAUCUAACAAAAAAGACAAAUCUGCCACAAAGCUUGAGAGCAUCUUCGGAUGCAGAGGCGGCAGCCUUCGGUGACGCGAUAGCGACAACGUUCCCAACUAUGACACGCAAAACGCGUGCUCCGUUGAAUGGAGUUUAUCAUG
The “polymerase ribozyme fitness (log ratio)” value of the first is lower: -3.1 for the first, -0.367 for the second.

First: GGAUCUUCUCGAUCUAACAAAAAAGACAAAUCUGCCACAAAGCUUGAGAGCAUCUUCGGAUGCAGAGGCGGCAGCCUUCGGUUGCGCGGUAGCGCCAACGUUAUCAAGUAUGACACGCAAAACGCGUGCUCCGCUGAAUGGCGUUUAUCAUG
Second: GGAUCUUCUCGAUCUAACAAAAAAGACAAAUCUGCCACAAAGCUUGAGAGCAUCUUCGGAUGCAGAGGCGGCAGCCUUCGGUUGCGCGAUAGCGCCAACGUUCUCAACUAUGACACGCACAACGCGUGCUCCGUUGAAUGAAGUUUAUCAUG
The “polymerase ribozyme fitness (log ratio)” value of the first is lower: ≤ -4.2 for the first, -0.169 for the second.

Going from GGAUCUUCUCGAUCUAACAAAAAAGACAAAUCUGCCACAAAGCUUGAGAGCAUCUUCGGAUGCAGAGGCGGCAGCCUUCGGUUGCGCGAUAGCGCCAACGUUCUCAACUAUGACACGCAUAACGCGUGCUCCGUUGAAUGCAGUUUAUCAUG to GGAUCUUCUCGAUCUAACAAAAAAGACAAAUCUGCCACAAAGCUUGAGAGCAUCUUCGGAUGCAGAGGCGGCAGCCUUCGGUGACGCGAUAGCGCCAACGUUCUCAACUAUGACACGCAAAACGCGUGCUCCGUUGAAUGGAGUUUAUCAUG, the “polymerase ribozyme fitness (log ratio)” value rises from -0.804 to -0.547.

GGAUCUUCUCGAUCUAACAAAAAAGACAAAUCUGCCACAAAGCUUGAGAGCAUCUUCGGAUGCAGAGGCGGCAGCCUUCGGUUGCGCGAUAGCGCCAACGAUCUCAACUAUGACUCUCAAAACGCGUGCUCCGUUGAAUGGAGUUUAUCAUG and GGAUCUUCUCGAUCUAACAAAAAAGACAAAUCUGCCACAAAGCUUGAGAGCAUCUUCGGAUGCAGAGGCGGCAGCCUUCGGUGACGCGAUAGCGCCAACGUUCUCAACUAUGUCACGCAAAACGCGUGCUCCGUUGAAUAGAGUUUAUCAUG cannot be ordered by “polymerase ribozyme fitness (log ratio)” value: ≤ -4.2 for the first, ≤ -4.2 for the second.

First: GGAUCUUCUCGAUCUAACAAAAAAGACAAAUCUGCCACAAAGCUUGAGAGCAUCUUCGGAUGCAGAGGCGGCAGCCUUCGGUUGCGCGAUAGCGCCAACGUUCUCAACUAUGAGUCGCUAAACGCGUGCUCCGUUGAAUGGAGUUUAUCAUG
Second: GGAUCUUCUCGAUCUAACAAAAAAGACAAAUCUGCCACAAAGCUUGAGAGCAUCUUCGGAUGCAGAGGCGGCAGCCUUCGGUGACGCGAUAGCGCCAACGUUCUCAACUAUGACACGUAAAACGCGUGCUCCGUUGAAUGGAGUUUAUCAUG
The “polymerase ribozyme fitness (log ratio)” value of the first is lower: ≤ -4.2 for the first, -0.13 for the second.

GGAUCUUCUCGAUCUAACAAAAAAGACAAAUCUGCCACAAAGCUUGAGAGCAUCUUCGGAUGCAGAGGCGGCAGCCUUCGGUUGCGUGCUAGCGCCAACGUUCUCAACUAUGACACGCAAAACGCGUGCUCCGUUGAAUGAGGUUUAUCAUG and GGAUCUUCUCGAUCUAACAAAAAAGACAAAUCUGCCACAAAGCUUGAGAGCAUCUUCGGAUGCAGAGGCGGCAGCCUUCGGUUGCGCGAUAGCGCCAACGUUCUCAACUAUGACACGCAAAACGCAUGCUCCGUUGAAUGGAGUUUAACAUG cannot be ordered by “polymerase ribozyme fitness (log ratio)” value: ≤ -4.2 for the first, ≤ -4.2 for the second.

GGAUCUUCUCGAUCUAACAAAAAAGACAAAUCUGCCACAAAGCUUGAGAGCAUCUUCGGAUGCAGAGGCGGCAGCCUUCGGUUGCGCGAUAGCGCCAACGUUCUCAACUAUGACACGCAAACCGCGUGCUCCCUUGAAUGGAGUUUCUCAUG and GGAUCUUCUCGAUCUAACAAAAAAGACAAAUCUGCCACAAAGCUUGAGAGCAUCUUCGGAUGCAGAGGCGGCAGCCUUCGGUGACGCGAUAGCGCCAGCGUUCUCAACUAUGACACGCAAAACGCGUGCUCCGUUGAAUGGAGUUUAUCAUG are within 0.2 log units of each other in “polymerase ribozyme fitness (log ratio)” value: -2.76 for the first, -2.7 for the second.

Compared with GGAUCUUCUCGAUCUAACAAAAAAGACAAAUCUGCCACAAAGCUUGAGAGCAUCUUCGGAUGCAGAGGCGGCAGCCUUCGGUUGCGCGAUAGCGCCAACGUUCUCAACUAUGACACGCAAAAAGCGUGCUCCGUUGAAUGGAGUUUAUCAUG, GGAUCUUCUCGAUCUAACAAAAAAGACAAAUCUGCCACAAAGCUUGAGAGCAUCUUCGGAUGCAGAGGCGGCAGCCUUCGGUUGCGCGAUAGCGUCAACGUUCUCAACUAUGACACGUAAAACGCGUGCUCCGUUGAAUGGAGAUUAUCAUG is lower in “polymerase ribozyme fitness (log ratio)” value: -0.709 for the first, -3.4 for the second.

Going from GGAUCUUCUCGAUCUAACAAAAAAGACAAAUCUGCCACAAAGCUUGAGAGCAUCUUCGGAUGCAGAGGCGGCAGCCUUCGGUUGCGCGAUAGCGCCAACGUUCUCAACUUUGACACGCAAAACGCGUGCUCCGUUGAAUGGAGUUUAUCAUG to GGAUCUUCUCGAUCUAACAAAAAAGACAAAUCUGCCACAAAGCUUGAGAGCAUCUUCGGAUGCAGAGGCGGCAGCCUUCGGUGACGCGAUUGCGCCAACGUUCUCAACUAUGACACGCAAAACGCGUGCUCCGUUGAAUGGAGUUUAUCAUG, the “polymerase ribozyme fitness (log ratio)” value falls from -4.17 to ≤ -4.2.

Compared with GGAUCUUCUCGAUCUAACAAAAAAGACAAAUCUGCCACAAAGCUUGAGAGCAUCUUCGGAUGCAGAGGCGGCAGCCUUCGGUGACGCGAUUGCGCCAACGUGCUCAACUAUGACACGCAAAACGCGUGCUCCGUUGAAUGGAGAUUAUCAUG, GGAUCUUCUCGAUCUAACAAAAAAGACAAAUCUGCCACAAAGCUUGAGAGCAUCUUCGGAUGCAGAGGCGGCAGCCUUCGGUGACGCGUUAGCGCCAACGUUCUCAACUAUGACACGCAAAACGCGUGCUCCGUUUAAUGGAGUUUAUCAUG is higher in “polymerase ribozyme fitness (log ratio)” value: ≤ -4.2 for the first, -2.91 for the second.

Going from GGAUCUUCUCGAUCUAACAAAAAAGACAAAUCUGCCACAAAGCUUGAGAGCAUCUUCGGAUGCAGAGGCGGCAGCCUUCGGUGACGCGAUAGCGCCAACGUUCUCAACUAUGACACGCAACACGCGGGCUCCGUUGAAUGGAGUUUAUCAUG to GGAUCUUCUCGAUCUAACAAAAAAGACAAAUCUGCCACAAAGCUUGAGAGCAUCUUCGGAUGCAGAGGCGGCAGCCUUCGGUUGCGCGAUAGCGCUAACGUUCUCAACUAUGACACGCAAAACGCGUGCUCCGUUGAAUGGAGUUUAUCAUG, the “polymerase ribozyme fitness (log ratio)” value rises from -2.56 to -0.875.

Compared with GGAUCUUCUCGAUCUAACAAAAAAGACAAAUCUGCCACAAAGCUUGAGAGCAUCUUCGGAUGCAGAGGCGGCAGCCUUCGGUUGCGCGAUAGCGCCAACGUUCUCAACUAUGACACGCAAAACGCGUGCUCCGUUGAAUUGAGUUUAUCAUU, GGAUCUUCUCGAUCUAACAAAAAAGACAAAUCUGCCACAAAGCUUGAGAGCAUCUUCGGAUGCAGAGGCGGCAGCCUUCGGUUGCGCGAUAGCGCCAACGUUCUCAACUAUGACACGCAAUACGCGUGCUCCGUUGAAUGGAGUUUAUCAUG is higher in “polymerase ribozyme fitness (log ratio)” value: -3.93 for the first, -0.341 for the second.

First: GGAUCUUCUCGAUCUAACAAAAAAGACAAAUCUGCCACAAAGCUUGAGAGCAUCUUCGGAUGCAGAGGCGGCAGCCUUCGGUGACGCGAUAGCGCCUACGUUCUCAACUAUGACACGCAAAACGCGUGCUCCGUUGAAUGGAGUUCAUCAUG
Second: GGAUCUUCUCGAUCUAACAAAAAAGACAAAUCUGCCACAAAGCUUGAGAGCAUCUUCGGAUGCAGAGGCGGCAGCCUUCGGUUGCGCGCUAGCGCCAACGUUCUCAACUAUGACACGCAAAACGCGUGCUCCGUUGAAUGGAGUUUAUCAUG
The “polymerase ribozyme fitness (log ratio)” value of the first is higher: -0.418 for the first, -0.953 for the second.

GGAUCUUCUCGAUCUAACAAAAAAGACAAAUCUGCCACAAAGCUUGAGAGCAUCUUCGGAUGCAGAGGCGGCAGCCUUCGGUUGCGCGAUAGCGUCAACGUUCUCAACUAUGACACGCAAAACGCGUGCUCCGUUGAAUGGAGUUUAUCAUG and GGAUCUUCUCGAUCUAACAAAAAAGACAAAUCUGCCACAAAGCUUGAGAGCAUCUUCGGAUGCAGAGGCGGCAGCCUUCGGUUGCGCGAUAGCGGCAACGUUCUCAACUAUGACACGCAAAACGCGUGCUCCGUUGAAUGGAGUUUAUCAUG are within 0.2 log units of each other in “polymerase ribozyme fitness (log ratio)” value: -1.53 for the first, -1.54 for the second.

Compared with GGAUCUUCUCGAUCUAACAAAAAAGACAAAUCUGCCACAAAGCUUGAGAGCAUCUUCGGAUGCAGAGGCGGCAGCCUUCGGUGACGCGAUAGCGCCAACGUUCUCAACUAUGACACGCUAAACGCGUGCUCCGUUGAAUGGAGUUUAUCAUG, GGAUCUUCUCGAUCUAACAAAAAAGACAAAUCUGCCACAAAGCUUGAGAGCAUCUUCGGAUGCAGAGGCGGCAGCCUUCGGUUGCGCGAUAGCGCCAACGUUCUCAACUAUGACACGCAAAACGCGUGAUCCGUUGAAUGGAGUUUAUCAUG is lower in “polymerase ribozyme fitness (log ratio)” value: -0.787 for the first, -4.02 for the second.

First: GGAUCUUCUCGAUCUAACAAAAAAGACAAAUCUGCCACAAAGCUUGAGAGCAUCUUCGGAUGCAGAGGCGGCAGCCUUCGGUGACGCGAUAGCGCCAACGUUCUCAACUAUGACUCGCAAAACGCAUGCUCCGUUGAAUGGAGUUUAUCAUG
Second: GGAUCUUCUCGAUCUAACAAAAAAGACAAAUCUGCCACAAAGCUUGAGAGCAUCUUCGGAUGCAGAGGCGGCAGCCUUCGGUGACGCGAUAGCGCCUACGUUCUCAACUAUGACACGCAAAACGCGUGCUCCGAUGAAUGGAGUUUAUCAUG
The “polymerase ribozyme fitness (log ratio)” value of the first is lower: -4.17 for the first, -3.23 for the second.

First: GGAUCUUCUCGAUCUAACAAAAAAGACAAAUCUGCCACAAAGCUUGAGAGCAUCUUCGGAUGCAGAGGCGGCAGCCUUCGGUUGCGCGAUAGCGCCGACGUUCUCAACUUUGACACUCAAAACGCGUGCUCCGUUGAAUGGAGUUUAUCAUG
Second: GGAUCUUCUCGAUCUAACAAAAAAGACAAAUCUGCCACAAAGCUUGAGAGCAUCUUCGGAUGCAGAGGCGGCAGCCUUCGGUUGCGCGAUAGCGGCAACGUUCUCAACUAUGACACGCAAAACUCGUGCUCCGUUGAAUGGAGUUUACCAUG
The “polymerase ribozyme fitness (log ratio)” value of the first is higher: -3.7 for the first, ≤ -4.2 for the second.

First: GGAUCUUCUCGAUCUAACAAAAAAGACAAAUCUGCCACAAAGCUUGAGAGCAUCUUCGGAUGCAGAGGCGGCAGCCUUCGGUUGCGCGAUAGCGCCAACGUUCUCAACUAUGACACGCAAAACGCGUGCUCCCUUGAAUGGAGUUUAUCAUG
Second: GGAUCUUCUCGAUCUAACAAAAAAGACAAAUCUGCCACAAAGCUUGAGAGCAUCUUCGGAUGCAGAGGCGGCAGCCUUCGGUUGCGCGAUAGCGCCAUCGUUCUUAACUAUGACACGCAAAACGCGUGCUCCGUUGAAUGGAGUUUAUCAUG
The “polymerase ribozyme fitness (log ratio)” value of the first is lower: -2.09 for the first, -0.156 for the second.

Compared with GGAUCUUCUCGAUCUAACAAAAAAGACAAAUCUGCCACAAAGCUUGAGAGCAUCUUCGGAUGCAGAGGCGGCAGCCUUCGGUUGCGCGAUAGCGCCAACGUUCUCAACUAUGACACGCAAAACGCGUGCUCCGUUGAAUGGAGUUUAUCAUG, GGAUCUUCUCGAUCUAACAAAAAAGACAAAUCUGCCACAAAGCUUGAGAGCAUCUUCGGAUGCAGAGGCGGCAGCCUUCGGUUGCGCGGUAGCGUCAACGUUGUCAACUAUGACACGCAAAACGCGUGCUCCGUUGAAUGGAGUUUAUCAUG is lower in “polymerase ribozyme fitness (log ratio)” value: -0.478 for the first, ≤ -4.2 for the second.
